According to patent US20030143209A1 (AVENTIS PHARMA S A, published 2003):

Molecular target: T1, CAR (Coxsackie and adenoviruses receptor) (human, UniProt P78310 20-365)
T1 sequence: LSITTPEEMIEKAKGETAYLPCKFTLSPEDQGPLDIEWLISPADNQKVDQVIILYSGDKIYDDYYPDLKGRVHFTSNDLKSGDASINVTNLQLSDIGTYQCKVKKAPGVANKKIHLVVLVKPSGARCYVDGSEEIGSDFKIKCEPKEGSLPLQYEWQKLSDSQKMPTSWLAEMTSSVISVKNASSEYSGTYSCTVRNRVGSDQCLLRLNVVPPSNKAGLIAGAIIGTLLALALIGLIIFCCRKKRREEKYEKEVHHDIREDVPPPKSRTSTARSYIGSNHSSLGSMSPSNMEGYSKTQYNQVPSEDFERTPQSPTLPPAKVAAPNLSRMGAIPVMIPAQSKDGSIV
Experiment: cell-based or functional assay

B1: vBS1: Ad5 virus with short-shafted fiber from Ad5 (deletion encompassing shaft repeats 4-16) (other)
chain: MKRARPSEDTFNPVYPYDTETGPPTVPFLTPPFVSPNGFQESPPGVLSLRLSEPLVTSNGMLALKMGNGLSLDEAGNLTSQNVTTVSPPLKKTKSNLDINYNKGLYLFTASNNSKKLEVNLSTAKGLMFDATAIAINAGDGLEFGSPNAPNTNPLKTKIGHGLEFDSNKAMVPKLGTGLSFDSTGAITVGNKNNDKLTLWTTPAPSPNCRLNAEKDAKLTLVLTKCGSQILATVSVLAVKGSLAPISGTVQSAHLIIRFDENGVLLNNSFLDPEYWNFRNGDLTEGTAYTNAVGFMPNLSAYPKSHGKTAKSNIVSQVYLNGDKTKPVTLTITLNGTQETGDTTPSAYSMSFSWDWSGHNYINEIFATSSYTFSYIAQE
- cell transduction of 293 cells (specific lacZ expression, moi 50 VP/cell): 10 fold
